{"source": "patent US11123408B2", "about": "“Compositions and methods for treating nonsteroidal anti-inflammatory drug (NSAID) associated coagulopathy, thrombocytopenia, glanzmann's thrombasthenia, and/or thrombosis” (YALE UNIVERSITY, priority 2011, dated 2021)", "key": {"[1]": {"experiment": "Ap3A hydrolysis by NPP enzymes (linked malachite green assay, absorbance change at 259 nm, HPLC)", "type": "biochemical", "protocol": "NPP4 nucleotide substrates were identified by directly detecting the free phosphate (Pi) product using malachite green (ADP substrate) or by a linked hydrolysis assay with alkaline phosphatase combined with malachite green (lipid substrates and nucleotide substrates without terminal P1) to measure released Pi. 50 μM substrate P1 equivalents (e.g. 25 μM ADP) were treated with 50 nM NPP4 for 1 hr 37 min (lipids) or 3 hr 15 min (all other substrates). For substrates without terminal phosphates, 10 units of calf intestinal alkaline phosphatase (M0290S, 10,000 units/mL, New England Biolabs, Ipswich, Mass.) was added for a final reaction volume of 50 μL. 100 μL of malachite green (BIOMOL GREEN™, Enzo Life Sciences, Plymouth Meeting, Pa.) was added to quench the reactions. The amount of phosphate released was measured by absorbance at 620 nm by a Biotek Synergy Mx plate reader (Winooski, Vt.) in 96-well plates (3679, Corning Inc., Corning, N.Y.) and compared against a phosphate standard curve.\nThe kinetics of the steady state Ap3A/Ap4A cleavage by NPP4 was measured from time courses of absorbance change at 259 nm using a UV spectrophotometer with a 0.1 cm optical path length cuvette or a stopped-flow device with a 0.2 cm optical path length cell. The enzymology reactions in 50 mM Tris pH 8.0, 140 mM NaCl, 5 mM KCl, 1 mM MgCl2 and 1 mM CaCl2 were started by addition of 1 μM NPP4 to varying concentrations of Ap3A/Ap4A (up to 800 μM) solution (UV spectrophotometer) or by rapid mixing of NPP4 and Ap3A/Ap4A (stopped-flow). The substrate concentrations higher than 800 μM have absorption too high to be measured by a UV spectrophotometer and stopped-flow, and were therefore measured by HPLC. […] Therefore, the rate of a product production or enzyme turnover measured by the absorption change assay can be calculated by the rate of absorption change\n[formula] according to the following formula;\n[formula] where Δl is optical path length. The following absorption coefficients were used: Ap3A: 25.75 mM^−1 cm^−1. Ap4A: 25.4 mM^−1 cm^−1. AMP, ADP, and ATP: 15.4 mM^−1 cm^−1. ADP Receptor Inhibitor Assay for NPP4 Inhibition\nThe HPLC protocol used to measure Ap3A/Ap4A cleavage by NPP4 and for product identification is modified from that of Stocchi et al. (1985, Anal Biochem 146:118-24). The reactions containing varying concentrations of Ap3A/Ap4A in the same buffer as in the absorbance change assay were started by addition of 0.2-1 μM NPP4 and quenched at various time points by equal volume of 3 M formic acid, or 0.5 N KOH and re-acidified by glacial acetic acid to pH 6. The quenched reaction solution was diluted systematically and loaded a HPLC system (Waters, Milford Mass.) and substrates and products were monitored by UV absorbance at 254 or 259 nm. Substrates and products were separated on a C18, 5 μm 250×4.6 mm HPLC column (Higgins Analytical, Mountain View, Calif.), using 15 mM ammonium acetate pH 6.0 solution, with a 0% to 10% (or 20%) methanol gradient. The products and substrate were quantified according to the integration of their correspondent peaks and the formula:\n[formula] where [substrate]0 is the initial substrate concentration. The extinction coefficients of Ap3A, Ap4A, AMP, ADP and ATP used in the formula were the same as those used in absorption change assay. If monitoring at 254 nm, substrate and product standards run on the same day as the reactions were used to convert integrated product/substrate peak areas to concentrations. […]"}, "[2]": {"tested_on": "platelets in platelet rich plasma", "experiment": "Light transmission aggregometry (LTA) in platelet rich plasma", "type": "cell-based, human", "protocol": "Whole blood from healthy voluntary donors was collected in accordance with an IRB-approved protocol into blue top vacutainer tubes containing 3.2% sodium citrate. Blood was centrifuged at 1000 RPM for 10 minutes at room temperature to collect platelet rich plasma (PRP). PRP in the supernatant was then transferred to fresh tubes, and the remainder of the specimen was centrifuged at 4000 RPM for 10 minutes to obtain platelet poor plasma (PPP). PRP was adjusted to a final platelet count of 250×10^6 platelets/mL with autologous PPP for use in aggregation studies. Potential donors were excluded if there was a history of a bleeding disorder or current anticoagulant use and donors were instructed to avoid NSAIDs for at least 7 days prior to donation. Approval for the human subjects involved in this research was sought and granted by the Committee for the Protection of Human Subjects, Dartmouth-Hitchcock Medical Center, where these studies were conducted in accordance with the Declaration of Helsinki.\nLight transmission (i.e., optical) and lumi aggregometry were performed on up to four samples from the same individual simultaneously with a Chrono-Log Model 700 Whole Blood/Optical Lumi Aggregometer (Chrono-Log Corporation, Havertown, Pa.) using procedures provided by the manufacturer that are briefly summarized here.\nPlatelet aggregation was determined by measuring the change in light transmittance of stirred PRP over time after addition of various agonists. Prior to each experiment the aggregometer was standardized to reflect 100% and 0% light transmittance with PPP and PRP, respectively, from the donor whose platelets were used in each specific experiment. 500 μL PRP was added to cuvettes containing a magnetic stir bar and allowed to pre-warm to 37° C. in the aggregometer wells for 3 minutes prior to initiating aggregation reactions which were then conducted at 37° C. Aggregation reactions were initiated by direct addition of agonists and/or enzymes to warmed, stirred PRP, and were monitored for an increase in light transmittance for 10 minutes. The increase in light transmittance is directly proportional to the amount of aggregation and is amplified and digitized into a computer (HP Compaq, Hewlett-Packard, Palo Alto, Calif.) with the AGGRO/LINK8 for Windows software (Chrono-Log Corporation, Havertown, Pa.) to generate aggregation curves. […] The platelet aggregometry experiments for all concentrations of MRS 2395 (including the 0 μM point) were conducted with the plasma adjusted to a final concentration of 10% DMSO to solubilize the inhibitor."}}}
{"molecule": "NPP4: soluble recombinant extracellular domain of human NPP4 (NCBI AAH18054.1, residues 1-407 of SEQ ID NO:1), expressed in insect cells (protein, listed as Homo sapiens) MKLLVILLFSGLITGFRSDSSSSLPPKLLLVSFDGFRADYLKNYEFPHLQNFIKEGVLVEHVKNVFITKTFPNHYSIVTGLYEESHGIVANSMYDAVTKKHFSDSNDKDPFWWNEAVPIWVTNQLQENRSSAAAMWPGTDVPIHDTISSYFMNYNSSVSFEERLNNITMWLNNSNPPVTFATLYWEEPDASGHKYGPEDKENMSRVLKKIDDLIGDLVQRLKMLGLWENLNVIITSDHGMTQCSQDRLINLDSCIDHSYYTLIDLSPVAAILPKINRTEVYNKLKNCSPHMNVYLKEDIPNRFYYQHNDRIQPIILVADEGWTIVLNESSQKLGDHGYDNSLPSMHPFLAAHGPAFHKGYKHSTINIVDIYPMMCHILGLKPHPNNGTFGHTKCLLVDQWCINLPEA", "values": [{"measurement": "Ap3A cleavage / hydrolysis (qualitative)", "setting": "[1]; linked assay or steady state enzymatic studies", "value": "detected cleavage"}, {"measurement": "maximum catalytic turnover rate (kcat) for Ap3A", "setting": "[1]; substrate Ap3A", "value": "~4", "unit": "s⁻¹"}, {"measurement": "kcat, Ap3A Hydrolysis by NPP4", "setting": "[1]; substrate Ap3A, steady state", "value": 4.2, "unit": "s^−1NPP4^−1"}, {"measurement": "Km", "setting": "[1]; substrate Ap3A, steady state, read-out: KM, Ap3A Hydrolysis by NPP4", "value": 843, "unit": "µM"}, {"measurement": "maximum aggregation", "setting": "[2]; 100 nM NPP4 at 80 μM Ap3A", "value": 80, "unit": "%"}, {"measurement": "maximum aggregation", "setting": "[2]; 200 nM NPP4 at 80 μM Ap3A", "value": 90, "unit": "%"}, {"measurement": "platelet aggregation response of enzyme in the presence of 80 μM Ap3A (qualitative)", "setting": "[2]; 80 μM Ap3A, enzyme 50-200 nM", "value": "strong primary and secondary aggregation waves"}, {"measurement": "platelet aggregation response, agent alone (qualitative)", "setting": "[2]; agent alone in PRP (Ap3A up to 160 μM; NPP4 100 nM)", "value": "does not trigger platelet aggregation"}]}
